Test results reported in PMC12724371 (Journal of Virology, 2025).

Experiments:
Test in all cases: BLI
Conditions in all cases: both partners purified
[1] = molecular target: T1, SARS-CoV spike S2 subunit (SARS-CoV, strain  (entry …, UniProt P59594))
T1 construct: source: bought: Sino Biological

[2] = molecular target: T2, SARS-CoV-2 spike S2 subunit (SARS-CoV-2, Wuhan-Hu-1 reference, UniProt P0DTC2)
T2 construct: source: bought: Sino Biological

MERS spike S2 subunit = molecular target: T3, MERS spike S2 subunit (MERS-CoV, strain  (entry: …, UniProt K9N5Q8))
T3 construct: source: bought: Sino Biological
T3 sequence (K9N5Q8 whole entry, looked up): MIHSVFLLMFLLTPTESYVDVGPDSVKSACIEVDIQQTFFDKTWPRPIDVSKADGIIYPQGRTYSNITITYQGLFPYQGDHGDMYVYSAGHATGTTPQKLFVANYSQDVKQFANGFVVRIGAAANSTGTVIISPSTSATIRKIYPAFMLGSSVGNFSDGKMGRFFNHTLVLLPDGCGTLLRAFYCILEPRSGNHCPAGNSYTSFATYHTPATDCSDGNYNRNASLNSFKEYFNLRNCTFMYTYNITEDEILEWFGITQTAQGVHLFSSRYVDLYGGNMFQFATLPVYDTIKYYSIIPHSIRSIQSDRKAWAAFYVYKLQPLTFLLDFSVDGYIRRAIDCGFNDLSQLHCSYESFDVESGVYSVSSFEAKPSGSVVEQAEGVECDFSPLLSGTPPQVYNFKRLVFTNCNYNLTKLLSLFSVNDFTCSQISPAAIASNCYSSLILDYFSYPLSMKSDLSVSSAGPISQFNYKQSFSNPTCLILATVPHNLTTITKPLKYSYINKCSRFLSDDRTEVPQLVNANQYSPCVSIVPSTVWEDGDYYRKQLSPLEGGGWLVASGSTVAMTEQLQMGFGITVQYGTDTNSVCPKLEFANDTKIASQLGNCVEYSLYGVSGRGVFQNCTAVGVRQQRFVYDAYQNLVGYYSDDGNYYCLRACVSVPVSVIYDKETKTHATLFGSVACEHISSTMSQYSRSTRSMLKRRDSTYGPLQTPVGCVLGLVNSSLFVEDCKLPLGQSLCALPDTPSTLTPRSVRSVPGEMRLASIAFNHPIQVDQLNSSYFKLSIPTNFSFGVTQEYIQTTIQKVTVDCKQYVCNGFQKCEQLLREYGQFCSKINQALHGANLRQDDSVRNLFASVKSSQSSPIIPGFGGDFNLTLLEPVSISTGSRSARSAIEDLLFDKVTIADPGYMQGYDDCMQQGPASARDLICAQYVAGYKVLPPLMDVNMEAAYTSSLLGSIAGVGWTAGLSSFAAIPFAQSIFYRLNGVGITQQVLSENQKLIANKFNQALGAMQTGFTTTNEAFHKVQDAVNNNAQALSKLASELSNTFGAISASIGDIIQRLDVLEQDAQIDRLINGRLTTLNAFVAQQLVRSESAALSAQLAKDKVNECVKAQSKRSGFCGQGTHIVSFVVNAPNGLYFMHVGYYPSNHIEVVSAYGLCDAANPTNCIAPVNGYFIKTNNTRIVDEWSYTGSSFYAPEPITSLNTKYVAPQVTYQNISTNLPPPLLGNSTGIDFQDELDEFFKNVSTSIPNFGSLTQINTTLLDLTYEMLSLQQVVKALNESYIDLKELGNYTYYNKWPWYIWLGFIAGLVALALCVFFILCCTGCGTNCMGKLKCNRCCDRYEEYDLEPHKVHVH

[3] = molecular target: SARS-CoV full-length spike protein (SARS-CoV, strain  (entry …, UniProt P59594))
[4] = molecular target: RatG13 full-length spike protein (Bat coronavirus RaTG13, UniProt A0ABF7PLN6)
[5] = molecular target: MERS full-length spike protein (MERS-CoV, strain  (entry: …, UniProt K9N5Q8))
[6] = molecular target: T4, HKU-1 full-length spike protein (HCoV-HKU1, UniProt Q0ZME7)
T4 construct: also called HKU1 SP; HCoV-HKU1 full-length SP; source: bought: Sino Biological
T4 sequence (Q0ZME7 13-1351): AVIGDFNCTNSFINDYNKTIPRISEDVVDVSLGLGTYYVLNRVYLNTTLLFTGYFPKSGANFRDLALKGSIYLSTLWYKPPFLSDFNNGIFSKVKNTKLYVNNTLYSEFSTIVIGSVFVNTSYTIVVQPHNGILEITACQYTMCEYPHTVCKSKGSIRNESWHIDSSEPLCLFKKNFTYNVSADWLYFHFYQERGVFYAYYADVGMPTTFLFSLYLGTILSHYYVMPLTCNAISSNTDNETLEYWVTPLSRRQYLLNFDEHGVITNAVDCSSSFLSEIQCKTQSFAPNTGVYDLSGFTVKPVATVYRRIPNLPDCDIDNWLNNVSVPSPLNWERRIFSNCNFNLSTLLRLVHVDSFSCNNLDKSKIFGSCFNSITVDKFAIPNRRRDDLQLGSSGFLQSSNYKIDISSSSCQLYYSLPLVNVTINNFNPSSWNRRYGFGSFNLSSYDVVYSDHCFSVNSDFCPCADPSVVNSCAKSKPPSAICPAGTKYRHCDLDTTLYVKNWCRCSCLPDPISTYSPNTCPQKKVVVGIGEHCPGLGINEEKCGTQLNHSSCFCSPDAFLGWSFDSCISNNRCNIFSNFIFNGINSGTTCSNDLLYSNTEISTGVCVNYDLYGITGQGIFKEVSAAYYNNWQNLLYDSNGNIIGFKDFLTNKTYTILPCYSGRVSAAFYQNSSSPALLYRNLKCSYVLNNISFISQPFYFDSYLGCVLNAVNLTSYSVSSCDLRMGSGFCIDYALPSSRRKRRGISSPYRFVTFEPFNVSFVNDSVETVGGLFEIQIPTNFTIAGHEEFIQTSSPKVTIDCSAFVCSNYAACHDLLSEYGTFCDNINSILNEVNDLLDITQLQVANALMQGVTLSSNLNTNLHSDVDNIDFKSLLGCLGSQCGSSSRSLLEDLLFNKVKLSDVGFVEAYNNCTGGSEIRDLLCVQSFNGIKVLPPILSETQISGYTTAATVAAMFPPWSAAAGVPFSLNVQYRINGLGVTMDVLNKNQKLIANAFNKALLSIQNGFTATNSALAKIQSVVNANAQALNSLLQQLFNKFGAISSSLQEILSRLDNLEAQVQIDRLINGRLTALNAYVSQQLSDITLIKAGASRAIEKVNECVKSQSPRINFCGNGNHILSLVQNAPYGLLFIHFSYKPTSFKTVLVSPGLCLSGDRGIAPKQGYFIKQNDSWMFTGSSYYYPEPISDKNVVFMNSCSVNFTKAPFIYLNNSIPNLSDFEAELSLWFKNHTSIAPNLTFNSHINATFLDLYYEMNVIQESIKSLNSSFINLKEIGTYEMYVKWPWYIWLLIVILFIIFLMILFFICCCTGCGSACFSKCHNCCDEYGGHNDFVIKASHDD

[7] = molecular target: T5, OC-43 full-length spike protein (HCoV-OC43, UniProt P36334)
T5 construct: source: bought: Sino Biological
T5 sequence (P36334 14-1353): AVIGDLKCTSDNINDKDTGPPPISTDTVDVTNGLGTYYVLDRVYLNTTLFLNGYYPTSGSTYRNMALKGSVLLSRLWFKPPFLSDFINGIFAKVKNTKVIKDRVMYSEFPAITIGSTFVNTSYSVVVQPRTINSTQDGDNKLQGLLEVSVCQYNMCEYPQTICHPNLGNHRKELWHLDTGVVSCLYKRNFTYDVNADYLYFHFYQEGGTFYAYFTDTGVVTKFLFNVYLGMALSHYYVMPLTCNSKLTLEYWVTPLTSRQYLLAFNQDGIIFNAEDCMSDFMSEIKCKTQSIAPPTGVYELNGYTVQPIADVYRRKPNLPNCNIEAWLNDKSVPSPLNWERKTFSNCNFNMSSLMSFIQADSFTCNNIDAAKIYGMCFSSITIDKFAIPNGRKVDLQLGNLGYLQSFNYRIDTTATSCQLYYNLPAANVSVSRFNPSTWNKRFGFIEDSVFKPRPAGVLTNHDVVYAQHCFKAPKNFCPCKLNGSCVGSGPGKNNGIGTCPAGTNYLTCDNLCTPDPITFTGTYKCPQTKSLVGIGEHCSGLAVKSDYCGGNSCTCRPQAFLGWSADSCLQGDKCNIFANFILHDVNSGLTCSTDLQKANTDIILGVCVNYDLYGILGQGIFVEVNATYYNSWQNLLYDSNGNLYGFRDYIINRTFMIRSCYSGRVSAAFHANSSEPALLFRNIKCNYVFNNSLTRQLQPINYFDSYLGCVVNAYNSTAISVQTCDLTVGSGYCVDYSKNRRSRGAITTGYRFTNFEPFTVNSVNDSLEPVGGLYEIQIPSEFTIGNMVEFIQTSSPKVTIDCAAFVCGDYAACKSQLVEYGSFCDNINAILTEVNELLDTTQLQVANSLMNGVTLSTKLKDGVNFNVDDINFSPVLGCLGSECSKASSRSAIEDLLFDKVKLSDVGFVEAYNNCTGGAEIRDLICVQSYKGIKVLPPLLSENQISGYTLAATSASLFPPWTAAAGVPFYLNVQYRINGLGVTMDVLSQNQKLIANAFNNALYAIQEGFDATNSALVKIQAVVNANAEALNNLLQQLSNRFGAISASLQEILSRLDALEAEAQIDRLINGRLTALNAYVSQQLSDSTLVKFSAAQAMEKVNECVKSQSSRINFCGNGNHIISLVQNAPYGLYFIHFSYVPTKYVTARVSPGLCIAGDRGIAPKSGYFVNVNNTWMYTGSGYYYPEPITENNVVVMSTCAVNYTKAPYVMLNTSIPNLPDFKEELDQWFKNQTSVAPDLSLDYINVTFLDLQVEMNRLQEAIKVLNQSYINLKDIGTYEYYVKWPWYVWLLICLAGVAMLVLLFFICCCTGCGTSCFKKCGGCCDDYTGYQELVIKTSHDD

Measured: binding result

B1: mAb 1871 IgG1 (wild-type human IgG1 Fc) (antibody, V domains shown)
VH: EVQLVESGGGLVKPGGSLRLSCVASGFSFSIYSMNWVRQAPGKGLEWVSYISSSSSYKYYADSVKGRFSVSRDNAKNSLYLQLNGLRAEDTAVYYCARDGYCPKGVCTYYGMDVWGQGTTVTVSA
VL: EIVMTQSPATLSVSPGERVTLSCRASQSVRSRLAWFQQKPGQAPRLLIYDASIRATGIPARFSGSGSGTEFTLIISSLQSEDFAVYYCQQYDNWPPAYTFGQGTKLEIK
notes: also called ADPT01871; source: HEK-293F, transiently transfected, purified (protein A, SEC Superdex200)
binds: all assays above
